Tests used:
mutant Ang2 protein = assay: Epitope ELISA with alanine-mutated Ang2 proteins; format: binding, human; conditions: A449 substituted with alanine
Method: To verify the epitope (or specific binding site) of the anti-Ang2 antibody prepared in Example 2, an ELISA was performed using a recombinant protein where a receptor binding domain (RBD) of Ang2 protein in the form of being tagged with Flag was mutated by artificial means.
Each well of a 96-well MaxiSorp™ flat-bottom plate (Nunc) was coated with 50 ul (microliter) of 1000 nM antibody. Then, the plate was washed five times with 0.05% (v/v) Tween-20-containing PBS (PBST) and blocked with 1% (v/v) BSA-containing PBS at a room temperature for 2 hours. 250 ng of each mutant Ang2 protein obtained by substituting S417, Q418, P419, N421, 1434, D448, A449, P452, Y460, N467, K468, or F469 residue of Ang2 protein tagged with a FLAG sequence (DYKDDDDK, Sigma) at its N-terminal with alanine was added to each well of the plate, which was then allowed to react at a room temperature for 2 hours. […]
Finally, 50 ul of TMB substrates (Cell signaling) was added to each well of the plate to induce color development at a room temperature for 3 min. and the reaction was ceased by the addition of 50 ul of Stop solution (Cell signaling) and then, OD450 values were measured on a plate reader (Molecular Devices). […]

[1] = system: metastasis of lung cancer cells to near lymph nodes; assay: LLC tumor metastasis to inguinal lymph nodes; format: in vivo, mouse; conditions: 10 mg/kg i.p., five administrations, compared to Fc- or 4H10-treated group
Method: To see the degree of tumor metastasis to near lymph nodes when treated with antibody 10D6, referring to the method of Example 14, LLC tumor cells were subcutaneously injected into mice. When the size of tumors reached 50˜100 mm^3, anti-Ang2 antibody 10D6 was injected at the concentration of 10 mg/kg via an intraperitoneal injection three times a week and the size of the tumors was measured. After administering the antibody five-times, inguinal lymph nodes were separated, and the obtained tissue sections were immunostained using rabbit anti-LYVE-1 antibody (1:200, Millipore) and mouse pan-Cytokeratin antibody (1;200, Abcam).
For comparison, the same experiment was performed to a control group treated with Fc of IgG1 and a comparative group treated with antibody 4H10 (refer to Example 3).

[2] = system: lymphatic endothelial cells; assay: Cell migration assay (xCelligence RTCA); format: cell-based; conditions: 2 ug/ml Ang2 with antibody; slope (1/hr)
Method: Also, the measurement of the mobility of lymphatic endothelial cells was conducted using xCelligence RTCA (Realtime cell analyzer; GE Healthcare). The RTCA is a non-invasive cell monitoring system by measuring impedance in real time to identify the change of a cell. To perform a cell migration assay, a CIM-plate16 (GE Healthcare) with a lower chamber and an upper chamber was used wherein microelectrodes for measuring impedance are arranged in the upper chamber and if the cells seeded into the chamber migrate through fine holes, the migration degree of the cells can be identified through their adhesion to the microelectrodes, and it was referred to as migration index. The lymphatic endothelial cells (P5-7; Lonza) which grew up in EGM-2 media (Lonza) were cultured in 1% FBS-added EBM media for 6 hours. 2 ug/ml of Ang2 and antibody 10D6 in 2% FBS-added EBM media were added to each well of the lower chamber of the CIM-plate 16, which was assembled with the upper chamber coated with fibronectin (Sigma). For efficiency comparison, an anti-Ang2 antibody (MedImmune Co.) was used. 30 ul of serum-free EBM media was each added to the upper chamber and then, for equilibration between the plate and media, while being placed in an incubator for 1 hour, the CIM-plate was installed on a device station in the incubator and then, background values were measured. […]

B1: 10D6: mouse anti-Ang2 monoclonal antibody from hybridoma KCLRF-BP-00295; heavy chain variable region SEQ ID NO: 7, light chain variable region SEQ ID NO: 9 (antibody, V domains shown)
VH: DVQLQESGPGLVKPSQSLSLTCTVTGYSITSDYAWNWIRQFPGNKLEWMGYINYSGNTDYNPSLKSRSSITRDTSKNQFFLQLNSVTTGDTATYYCARGNFEGAMDYWGQGTSVTVSS
VL: SIVMTQTPKFLLVSAGDRVTITCKASQSVSNDVAWYQQKPGQSPKLLIYYASNRYPGVPDRFTGSGYGTDFTFTISTVQAEDLAVYFCQQDYSSPWTFGGGTKLEIK
modifications: Synthetic (Heavy chain variable region of an anti-Ang2 antibody); Synthetic (Light chain variable region of anti-Ang2 antibody)
In the case of B1, the “binding affinity (%) with mutant Ang2 against the binding affinity with the native Ang2, 449” value (mutant Ang2 protein) is reported as 97.86%, the “number of metastatic lung cancer in lymph nodes” value [1] is reported as “decreased” and the “size of lymph nodes” value [1] is reported as “decreased”. The “migration of lymphatic endothelial cells” value [2] was “increased”.
